Source: IntAct's records for PubMed 19850925

B1: Complement factor H (Homo sapiens), P08603 (parent)
chain: MRLLAKIICLMLWAICVAEDCNELPPRRNTEILTGSWSDQTYPEGTQAIYKCRPGYRSLGNVIMVCRKGEWVALNPLRKCQKRPCGHPGDTPFGTFTLTGGNVFEYGVKAVYTCNEGYQLLGEINYRECDTDGWTNDIPICEVVKCLPVTAPENGKIVSSAMEPDREYHFGQAVRFVCNSGYKIEGDEEMHCSDDGFWSKEKPKCVEISCKSPDVINGSPISQKIIYKENERFQYKCNMGYEYSERGDAVCTESGWRPLPSCEEKSCDNPYIPNGDYSPLRIKHRTGDEITYQCRNGFYPATRGNTAKCTSTGWIPAPRCTLKPCDYPDIKHGGLYHENMRRPYFPVAVGKYYSYYCDEHFETPSGSYWDHIHCTQDGWSPAVPCLRKCYFPYLENGYNQNYGRKFVQGKSIDVACHPGYALPKAQTTVTCMENGWSPTPRCIRVKTCSKSSIDIENGFISESQYTYALKEKAKYQCKLGYVTADGETSGSITCGKDGWSAQPTCIKSCDIPVFMNARTKNDFTWFKLNDTLDYECHDGYESNTGSTTGSIVCGYNGWSDLPICYERECELPKIDVHLVPDRKKDQYKVGEVLKFSCKPGFTIVGPNSVQCYHFGLSPDLPICKEQVQSCGPPPELLNGNVKEKTKEEYGHSEVVEYYCNPRFLMKGPNKIQCVDGEWTTLPVCIVEESTCGDIPELEHGWAQLSSPPYYYGDSVEFNCSESFTMIGHRSITCIHGVWTQLPQCVAIDKLKKCKSSNLIILEEHLKNKKEFDHNSNIRYRCRGKEGWIHTVCINGRWDPEVNCSMAQIQLCPPPPQIPNSHNMTTTLNYRDGEKVSVLCQENYLIQEGEEITCKDGRWQSIPLCVEKIPCSQPPQIEHGTINSSRSSQESYAHGTKLSYTCEGGFRISEENETTCYMGKWSSPPQCEGLPCKSPPEISHGVVAHMSDSYQYGEEVTYKCFEGFGIDGPAIAKCLGEKWSHPPSCIKTDCLSLPSFENAIPMGEKKDVYKAGEQVTYTCATYYKMDGASNVTCINSRWTGRPTCRDTSCVNPPTVQNAYIVSRQMSKYPSGERVRYQCRSPYEMFGDEEVMCLNGNWTEPPQCKDSTGKCGPPPPIDNGDITSFPLSVYAPASSVEYQCQNLYQLEGNKRITCRNGQWSEPPKCLHPCVISREIMENYNIALRWTAKQKLYSRTGESVEFVCKRGYRLSSRSHTLRTTCWDGKLEYPTCAKR
partner: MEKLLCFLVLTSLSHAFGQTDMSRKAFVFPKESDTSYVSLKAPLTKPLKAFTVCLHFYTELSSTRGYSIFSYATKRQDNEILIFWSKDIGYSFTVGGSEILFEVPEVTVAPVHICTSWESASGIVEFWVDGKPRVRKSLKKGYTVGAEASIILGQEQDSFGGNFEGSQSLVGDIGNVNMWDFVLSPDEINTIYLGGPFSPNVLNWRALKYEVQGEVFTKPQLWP

Variants of: B1
Settings: with crp_human CRP

Variant | effect of a mutation on the interaction
Y402H | decreasing interaction strength
